Like-named read-outs stand apart in the source and are kept apart here.

We go through three molecules from PMC4459711.

Common to all, as to test: X-ray crystallography
The target in data set [1] is T1, L1750 (LACV L protein, residues 1-1750) (La Crosse virus (strain …, UniProt A5HC98 1-1750)).
For data set [2], the target named is T1, L1750 (LACV L protein, residues 1-1750). The source holds these as a separate data set.
For data set [3] the target is unchanged. This is another data set of the same source.

T1 sequence (A5HC98 1-1750): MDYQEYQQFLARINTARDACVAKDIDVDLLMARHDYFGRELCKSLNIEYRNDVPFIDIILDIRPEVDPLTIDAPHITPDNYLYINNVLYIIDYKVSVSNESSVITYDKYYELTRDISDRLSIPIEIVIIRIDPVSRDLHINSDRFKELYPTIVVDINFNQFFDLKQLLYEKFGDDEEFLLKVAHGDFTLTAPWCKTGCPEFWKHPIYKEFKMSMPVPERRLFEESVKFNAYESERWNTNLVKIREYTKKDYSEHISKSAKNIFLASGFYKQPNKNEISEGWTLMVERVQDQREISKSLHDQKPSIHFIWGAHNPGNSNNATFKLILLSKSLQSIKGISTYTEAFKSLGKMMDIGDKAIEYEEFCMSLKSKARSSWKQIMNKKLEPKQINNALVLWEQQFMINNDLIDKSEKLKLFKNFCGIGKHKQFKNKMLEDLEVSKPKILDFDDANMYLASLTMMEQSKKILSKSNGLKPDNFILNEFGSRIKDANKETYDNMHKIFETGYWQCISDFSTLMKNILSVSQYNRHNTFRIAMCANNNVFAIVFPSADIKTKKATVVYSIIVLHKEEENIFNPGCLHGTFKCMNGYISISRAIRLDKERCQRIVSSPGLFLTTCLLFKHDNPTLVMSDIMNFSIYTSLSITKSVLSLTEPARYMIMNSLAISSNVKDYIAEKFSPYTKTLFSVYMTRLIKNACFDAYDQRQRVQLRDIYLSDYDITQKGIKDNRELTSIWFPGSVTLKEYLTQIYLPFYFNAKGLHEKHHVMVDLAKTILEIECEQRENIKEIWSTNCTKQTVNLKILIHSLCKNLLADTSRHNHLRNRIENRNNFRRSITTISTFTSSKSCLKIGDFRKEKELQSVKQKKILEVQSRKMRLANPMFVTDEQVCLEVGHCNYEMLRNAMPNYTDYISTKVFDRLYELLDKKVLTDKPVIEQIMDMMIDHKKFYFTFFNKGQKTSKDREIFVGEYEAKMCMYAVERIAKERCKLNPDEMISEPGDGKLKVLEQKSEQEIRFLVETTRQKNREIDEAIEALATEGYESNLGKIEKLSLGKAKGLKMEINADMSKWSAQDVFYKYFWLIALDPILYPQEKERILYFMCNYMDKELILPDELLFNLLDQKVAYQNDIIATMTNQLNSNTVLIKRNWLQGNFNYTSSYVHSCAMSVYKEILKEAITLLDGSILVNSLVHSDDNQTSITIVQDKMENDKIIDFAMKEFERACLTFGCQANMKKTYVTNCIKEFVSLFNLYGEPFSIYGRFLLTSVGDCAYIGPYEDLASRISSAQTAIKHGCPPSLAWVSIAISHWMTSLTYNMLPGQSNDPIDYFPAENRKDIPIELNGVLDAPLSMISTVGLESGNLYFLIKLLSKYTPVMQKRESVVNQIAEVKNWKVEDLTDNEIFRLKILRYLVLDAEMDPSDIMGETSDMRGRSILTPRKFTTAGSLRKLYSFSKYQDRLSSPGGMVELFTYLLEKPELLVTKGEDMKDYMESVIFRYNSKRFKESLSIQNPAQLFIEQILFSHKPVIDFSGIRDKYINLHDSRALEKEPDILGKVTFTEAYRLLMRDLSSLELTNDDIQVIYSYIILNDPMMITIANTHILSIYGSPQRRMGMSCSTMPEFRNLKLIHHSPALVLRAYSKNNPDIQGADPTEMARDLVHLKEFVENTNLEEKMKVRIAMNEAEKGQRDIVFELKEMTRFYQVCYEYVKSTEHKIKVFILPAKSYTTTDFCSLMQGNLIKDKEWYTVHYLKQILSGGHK

B1: 3' vRNA 1-16 / 5' vRNA 9-16 partial duplex (mixed)
RNA 1: UUGGUAGUACACUACU
RNA 2: GCUACCAA
As for B1, the binding result in data set [1] is on record as “binds”.

B2: 5' vRNA 1-10 (hook) (structured_RNA)
RNA: AGUAGUGUGC
modifications: 5' phosphate
Turning to B2, the binding result in data set [2] is “binds”.

B3: 5' vRNA 1-11 (structured_RNA)
RNA: AGUAGUGUGCU
As for B3, in data set [3], the binding result was “binds”.
